Measured values as given in publication doi:10.1101/2023.03.06.531442 (bioRxiv, 2023).

B1: mouse α-tubulin isotype α1C (natural protein)
chain: MRECISIHVGQAGVQIGNACWELYCLEHGIQPDGQMPSDKTIGGGDDSFNTFFSETGAGKHVPRAVFVDLEPTVIDEVRTGTYRQLFHPEQLITGKEDAANNYARGHYTIGKEIIDLVLDRIRKLADQCTGLQGFLVFHSFGGGTGSGFTSLLMERLSVDYGKKSKLEFSIYPAPQVSTAVVEPYNSILTTHTTLEHSDCAFMVDNEAIYDICRRNLDIERPTYTNLNRLISQIVSSITASLRFDGALNVDLTEFQTNLVPYPRIHFPLATYAPVISAEKAYHEQLTVAEITNACFEPANQMVKCDPRHGKYMACCLLYRGDVVPKDVNAAIATIKTKRTIQFVDWCPTGFKVGINYQPPTVVPGGDLAKVQRAVCMLSNTTAIAEAWARLDHKFDLMYAKRAFVHWYVGEGMEEGEFSEAREDMAALEKDYEEVGADSAEGDDEGEEY
B2: mouse α-tubulin isotype α4A (natural protein)
chain: MRECISVHVGQAGVQMGNACWELYCLEHGIQPDGQMPSDKTIGGGDDSFTTFFCETGAGKHVPRAVFVDLEPTVIDEIRNGPYRQLFHPEQLITGKEDAANNYARGHYTIGKEIIDPVLDRIRKLSDQCTGLQGFLVFHSFGGGTGSGFTSLLMERLSVDYGKKSKLEFSIYPAPQVSTAVVEPYNSILTTHTTLEHSDCAFMVDNEAIYDICRRNLDIERPTYTNLNRLISQIVSSITASLRFDGALNVDLTEFQTNLVPYPRIHFPLATYAPVISAEKAYHEQLSVAEITNACFEPANQMVKCDPRHGKYMACCLLYRGDVVPKDVNAAIAAIKTKRSIQFVDWCPTGFKVGINYQPPTVVPGGDLAKVQRAVCMLSNTTAIAEAWARLDHKFDLMYAKRAFVHWYVGEGMEEGEFSEAREDMAALEKDYEEVGIDSYEDEDEGEE
B3: recombinant mouse α4A/β2A tubulin heterodimer (complex)
chain 1: MRECISVHVGQAGVQMGNACWELYCLEHGIQPDGQMPSDKTIGGGDDSFTTFFCETGAGKHVPRAVFVDLEPTVIDEIRNGPYRQLFHPEQLITGKEDAANNYARGHYTIGKEIIDPVLDRIRKLSDQCTGLQGFLVFHSFGGGTGSGFTSLLMERLSVDYGKKSKLEFSIYPAPQVSTAVVEPYNSILTTHTTLEHSDCAFMVDNEAIYDICRRNLDIERPTYTNLNRLISQIVSSITASLRFDGALNVDLTEFQTNLVPYPRIHFPLATYAPVISAEKAYHEQLSVAEITNACFEPANQMVKCDPRHGKYMACCLLYRGDVVPKDVNAAIAAIKTKRSIQFVDWCPTGFKVGINYQPPTVVPGGDLAKVQRAVCMLSNTTAIAEAWARLDHKFDLMYAKRAFVHWYVGEGMEEGEFSEAREDMAALEKDYEEVGIDSYEDEDEGEE
chain 2: […]

What was measured:
cryo-EM structure = target: the molecule itself; test: cryo-EM structure
[1] = target: the molecule itself; test: TIRF microscopy of assembled microtubules

| Protein | binding result (cryo-EM structure) | binding result [1] |
| --- | --- | --- |
| B1 | binds |  |
| B2 | binds |  |
| B3 |  | binds |
